The source of these data is patent US20040038293A1 (Novartis, published 2004).

For test [1], the target named is T1, recombinant soluble human CD154 (extracellular portion of human CD154 fused to mouse Cκ), trimeric (human; mouse, UniProt P29965 47-261).
T1 construct: extracellular domain; also called CD154-κ; soluble recombinant CD154; not shown: mouse immunoglobulin kappa constant region (Cκ)
T1 sequence (looked up): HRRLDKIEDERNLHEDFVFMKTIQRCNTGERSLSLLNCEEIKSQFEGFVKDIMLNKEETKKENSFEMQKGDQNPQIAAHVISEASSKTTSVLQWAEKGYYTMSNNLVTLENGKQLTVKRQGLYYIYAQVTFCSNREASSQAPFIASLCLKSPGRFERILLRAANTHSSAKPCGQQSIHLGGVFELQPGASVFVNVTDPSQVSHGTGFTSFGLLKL
Put plainly: cell-free competitive binding assay: CD154-κ immobilised, biotinylated soluble human CD40, Eu-streptavidin fluorimetry. As to the method:
The ability to inhibit the binding of CD154 to CD40 is tested in a cell-free competitive binding assay. Recombinant soluble human CD154 (i.e., the extracellular portion of human CD154 fused to mouse Cκ) is immobilized on microtiter plates and the plates incubated, in the presence or absence of a putative inhibitor, with biotinylated recombinant soluble human CD40. The fraction of CD40 bound to CD154 is fluorimetrically determined using Eu-labelled streptavidin as the detection reagent.

Test [2] has as its target T1, recombinant soluble human CD154 …. Put plainly: cell-based or functional assay.
The target is the same in test [3]. The test is described as follows: SPR (BIAcore), ABI793 immobilised, CD154-κ 10 to 160 nM in solution, n = 3. As for the experimental part: The association and dissociation rate constant for the binding of recombinant human CD154 to ABI793 is determined by BIAcore analysis. ABI793 is immobilized, and binding of soluble recombinant CD154 (CD154-κ) in a concentration range from 10 to 160 nM is measured by surface plasmon resonance. The chosen format represents a monovalent interaction. Data analysis is performed using the BIA evaluation software.

B1: ABI793 antibody (human anti-human CD154 monoclonal antibody from hybridoma # 207.2) (antibody, V domains shown)
VH: QVQLVQSGAEVQKPGSSVKVSCKASGGTFSNFAFNWVRQVPGQGLEWMGRILPSLDIASYAQKFQDRVTITADKSTSTAYMELSSLRSEDTAMYYCAREVDGGGFDYWGQGTLVTVSS
VL: DIQMTQSPSSLSASVGDRVTITCRASQGISSWLAWYQQKPEKAPKSLIYAASSLQSGVPSRFSGSGSGTDFTLTISSLQPEDFATYYCQQYNSYPFTFGGGTKVEIK
notes: FTC-labelled in part of the flow cytometry experiments; also called Antibody of the Invention
As for B1, the IC50 in test [1] came to 0.075 µg/mL. In test [2], the “Inhibition of CD154/IL-4 driven B Cell Proliferation (3H-TdR uptake), IC50” value turned out to be 73 ng/mL. Also, in test [3], the Kd was 23.1 nM, the koff amounted to 0.000538 s⁻¹ and the kon worked out at 23400 M⁻¹ s⁻¹.
